How the values were obtained:
[1] = target: T1, human IL-17 receptor (IL-17RA) on transfected cells (human), Q96F46; assay: saturation binding, iodinated cytokine on transfected BHK cells; saturation binding, iodinated hIL-17F on hIL-17RA BHK cells; conditions: remark: other sources report otherwise
[2] = target: T1, human IL-17 receptor (IL-17RA) on …; assay: saturation binding, iodinated cytokine on transfected BHK cells; saturation binding; fold comparison with the other Kd values of Table 1; conditions: remark: other sources report otherwise

T1 sequence (Q96F46 33-320 limits assumed): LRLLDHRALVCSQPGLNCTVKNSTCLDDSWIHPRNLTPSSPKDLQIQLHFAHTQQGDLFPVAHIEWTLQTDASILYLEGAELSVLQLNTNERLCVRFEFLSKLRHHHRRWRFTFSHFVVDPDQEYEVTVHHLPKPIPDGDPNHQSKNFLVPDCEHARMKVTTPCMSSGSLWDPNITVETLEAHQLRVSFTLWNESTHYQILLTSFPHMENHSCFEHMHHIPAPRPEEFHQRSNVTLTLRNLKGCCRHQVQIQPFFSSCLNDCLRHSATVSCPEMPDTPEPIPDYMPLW

- Kd [1]: 1.5 µM
- fold lower affinity relative to the other affinities measured [2]: 1000 fold
B1: human IL-17F, Q96PD4 31-163 (ligand)
chain: RKIPKVGHTFFQKPESCPPVPGGSMKLDIGIINENQRVSMSRNIESRSTSPWNYTVTWDPNRYPSEVVQAQCRNLGCINAQGKEDISMNSVPIQQETLVVRRKHQGCSVSFQLEKVLVTVGCTCVTPVIHHVQ

— patent US20110014656A1
